Results on 1 molecule are retold here after article PMC7064771, “Repurposed Drugs That Block the Gonococcus-Complement Receptor 3 Interaction Can Prevent and Cure Gonococcal Infection of Primary Human Cervical Epithelial Cells” (mBio, 2020).

One test has as its target T1, human rI-domain (Homo sapiens, UniProt P11215).
T1 construct: Recombinant human and mouse I-domain proteins were made and purified as previously described; made in house
Briefly: Surface plasmon resonance, immobilized human rI-domain. Format: binding. As to conditions: purified pilin 0.125-2 μM; NCDI = no concentration-dependent interaction (no binding of ≤2 μM); read-out: KD, rI-domain, Human. The method, then:
(§1) SPR analyses were performed using a Biacore S200 system (GE Healthcare Life Sciences, Parramatta, NSW, Australia). Samples were analyzed at 25°C in phosphate-buffered saline (PBS) at a flow rate of 10 μl/min and by using single-cycle kinetics. Human rI-domain, mouse rI-domain, and human rCR3 were immobilized onto separate cells of a Series S CM5 sensor chip using an NHS capture kit (both from GE Healthcare Life Sciences) for purified pilin experiments. For experiments in which pilin-glycan-like structures were examined, human rI-domain and rCR3 were immobilized onto separate cells of a CM5 chip. A blank immobilization was used as a control/reference on all chips. MS11 wild-type and MS11 pglA pilin were serially diluted from 2 μM to 0.125 μM in PBS. Glycans (Dextra Laboratories, Reading, UK) (Table 2), resembling the gonococcal Gal(α1-3)diNAcBac pilin-linked glycan, were serially diluted from 2 μM to 0.0078 μM in PBS. Affinity data points were taken at 15 s after injection to avoid an artefactual signal resulting from bulk transport. SPR sensorgrams were analyzed using Biacore Evaluation software (GE Healthcare Life Sciences).
Background: In SPR one partner is held on a chip, and binding of the other changes the refractive index at the surface.

The target of a further test is T2, mouse rI-domain (Mus musculus, UniProt P05555).
T2 construct: Recombinant human and mouse I-domain proteins were made and purified as previously described; made in house
Put plainly: Surface plasmon resonance, immobilized mouse rI-domain. The following applies: purified pilin 0.125-2 μM; NCDI = no concentration-dependent interaction (no binding of ≤2 μM). As to the method:
as §1

T1 sequence (P11215 150-328 limits assumed): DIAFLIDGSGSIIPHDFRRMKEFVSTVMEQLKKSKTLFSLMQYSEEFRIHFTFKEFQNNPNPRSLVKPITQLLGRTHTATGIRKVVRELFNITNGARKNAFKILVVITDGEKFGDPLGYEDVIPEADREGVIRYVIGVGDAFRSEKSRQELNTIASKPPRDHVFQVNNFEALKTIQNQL
T2 sequence (P05555 164-338): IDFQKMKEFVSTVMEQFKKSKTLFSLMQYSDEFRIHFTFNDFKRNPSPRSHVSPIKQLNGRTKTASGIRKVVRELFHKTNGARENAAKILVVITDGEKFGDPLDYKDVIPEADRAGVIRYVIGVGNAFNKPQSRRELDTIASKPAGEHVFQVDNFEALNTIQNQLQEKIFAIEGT

B1: MS11 wild type: N. gonorrhoeae MS11 pilin modified with the Gal(α1-3)diNAcBac disaccharide glycan (protein, UniProt P02974 8-165, looked up)
Type IV major pilin protein …: FTLIELMIVIAIVGILAAVALPAYQDYTARAQVSEAILLAEGQKSAVTEYYLNHGKWPENNTSAGVASPPSDIKGKYVKEVEVKNGVVTATMLSSGVNNEIKGKKLSLWARRENGSVKWFCGQPVTRTDDDTVADAKDGKEIDTKHLPSTCRDNFDAK
modifications: Gal(α1-3)diNAcBac disaccharide glycan
notes: N. gonorrhoeae MS11 pilin modified with the Gal(α1-3)diNAcBac disaccharide glycan
For B1, the Kd (in general, the equilibrium constant for the complex coming apart) with human rI-domain stood at 349 ± 45 nM. Further, the “KD, rI-domain, Mouse” value with mouse rI-domain is reported as “NCDI”.
